Data: article PMC12853182, “Dynamic acetylation of a conserved lysine impacts glycerol kinase activity and abundance in the haloarchaeon Haloferax volcanii” (The Journal of Biological Chemistry, 2025)

Target: the molecule itself
Test: SEC; Superdex 200 HR 10/300 GL, 50 mM HEPES pH 7.5, 2 M NaCl, 1 mM DTT, without glycerol; His-HvGK from cells grown in ATCC, GluMM or FruMM; mass by standard curve

B1: N-terminally His-tagged Haloferax volcanii glycerol kinase (His-HvGK), wildtype, purified from H. volcanii (enzyme, UniProt D4GYI5 1-510, looked up)
chain: MSGETYVGAIDQGTTGTRFMVFDHDGKVVANAYEKHEQIYPEPGWVEHDANEIWDNTKQVIDAALSSAGLDAEQLEAIGITNQRETTLVWDRETGQPIHNAIVWQDRRTTDRIETLEAEGKTDDVRAKTGLEPDAYFSATKAEWLLDNSDPIKLQRSRPEDIRDRAADGELAFGTIDTWLIYNLTGNHITDVTNASRTMLFNIHDMEWDDELLDEFNVPRELLPEVRPSSDDDYYGTTDADGFLGAEVPVAGALGDQQAALFGQTCFDAGDAKNTYGTGSFMLMNTGDEAVMSEHGLLTTVGFQRSGEPVQYALEGSIFITGAAIEWLEDMTLIDNAAESEKLARSVESTDGVYFVPAFTGLGAPHWDQRARGTIVGMTRGTRREHIVRATLESIAFQTRDVAEAMESDSEIDLSSLRVDGGAVKNNFLCQLQSNILDTEIVRPQVDETTALGAAYAAGLAVGYWETLDELRENWQVDREFAPKDPQNVEHRYGRWKEAVDRSLDWAREE
modifications: acetyl-lysine at K153, partial occupancy by AQUA-MS (50% in FruMM, 33% in ATCC rich medium, 17% in GluMM)
notes: Glycerol kinase (GlpK) of Haloferax volcanii, UniProt D4GYI5, gene hvo_1541; theoretical molecular weight 56.7 kDa monomer; The glpK gene was amplified and cloned into a pJAM503 backbone modified for an N-terminal His-tag fusion (pJAM4351); also called His-HvGK wt; HvGKHv; source: H. volcanii, expressed from a plasmid, cells grown in ATCC 974 rich medium, GluMM or FruMM; purified (Ni-NTA); not …
  stoichiometry N: 2
